From patent US20100240080A1
Values belong to the molecule of their own block, whether it stands above or below them.

Key:
[1] = target: Abl 1 substrate, SEQ ID NO: 3 (…), modified with 7-hydroxycoumarin and 5-FAM; test: cell-based or functional assay
[2] = tested on: T1, Akt 1 substrate, SEQ ID NO: 59 (ARPRAFSVGK), modified with 7-hydroxycoumarin and 5-FAM
T1 sequence: ARPRAFSVGK

[3] = target: Akt 1 substrate, SEQ ID NO: 59 (…), modified with 7-hydroxycoumarin and 5-FAM; test: cell-based or functional assay
[4] = tested on: T2, SEQ ID NO: 47 (ALRRFSLGEK), modified as described
T2 sequence: ALRRFSLGEK

[5] = tested on: T3, SEQ ID NO: 103 (GDQDYLS*LDK), labelled phosphopeptide
T3 sequence: GDQDYLSLDK

[6] = tested on: T4, SEQ ID NO: 109 (ARPRAFS*VGK), labelled phosphopeptide
T4 sequence: ARPRAFSVGK

[7] = tested on: T5, SEQ ID NO: 110 (RRRQFS*LRRKAK), labelled phosphopeptide
T5 sequence: RRRQFSLRRKAK

[8] = tested on: T6, SEQ ID NO: 113 (RPRTFSS*LAEGK), labelled phosphopeptide
T6 sequence: RPRTFSSLAEGK

[9] = tested on: T7, SEQ ID NO: 100 (RGGLFS*TTPGGTK), labelled phosphopeptide
T7 sequence: RGGLFSTTPGGTK

[10] = target: T8, SEQ ID NO: 31 (EEEIY*GVIEK), labelled phosphopeptide
T8 chain: EEEIYGVIEK

% of substrate phosphorylated in the 0% inhibition control (1.5 ng Abl 1/well, 10 µM ATP) [1]: 30%
Molecule: Abl 1 kinase (from UniProt P00519 1-1130) (enzyme)

Molecule: Akt 1 kinase
% Phosphorylation at 5.0 ng Akt 1 kinase per well [2]: 8%
% Phosphorylation at 10.0 ng Akt 1 kinase per well [2]: 12%
% Phosphorylation at 25.0 ng Akt 1 kinase per well [2]: 20%
% Phosphorylation at 37.5 ng Akt 1 kinase per well [2]: 28%
% Phosphorylation at 42.0 ng Akt 1 kinase per well [2]: 30%
% Phosphorylation at 50.0 ng Akt 1 kinase per well [2]: 33%
% Phosphorylation at 75.0 ng Akt 1 kinase per well [2]: 38%
% Phosphorylation at 100.0 ng Akt 1 kinase per well [2]: 43%
% Phosphorylation at 150.0 ng Akt 1 kinase per well [2]: 50%

% of substrate phosphorylated in the 0% inhibition control (42 ng Akt 1/well, 10.5 µM ATP) [3]: 30%
Molecule: Akt 1 kinase (from UniProt P31749 1-480) (enzyme)

Molecule: PKA
% phosphorylation by PKA (kinase titration, FRET/chymotrypsin read-out) [4]: SEQ ID NO: 47 modified as described, is the best substrate for the kinase because it yielded maximal phosphorylation even at low kinase concentrations

Molecule: PP2A
phosphatase substrate screen (dephosphorylation, FRET/chymotrypsin read-out) [5]: SEQ ID NOs: 103, 109, 110, and 113 were substrates of PP2A
phosphatase substrate screen (dephosphorylation, FRET/chymotrypsin read-out) [6]: SEQ ID NOs: 103, 109, 110, and 113 were substrates of PP2A
phosphatase substrate screen (dephosphorylation, FRET/chymotrypsin read-out) [7]: SEQ ID NOs: 103, 109, 110, and 113 were substrates of PP2A
phosphatase substrate screen (dephosphorylation, FRET/chymotrypsin read-out) [8]: SEQ ID NOs: 103, 109, 110, and 113 were substrates of PP2A

Molecule: PP2B
phosphatase substrate screen (dephosphorylation, FRET/chymotrypsin read-out) [9]: SEQ ID NOs: 100 and 110 were substrates of PP2B
phosphatase substrate screen (dephosphorylation, FRET/chymotrypsin read-out) [7]: SEQ ID NOs: 100 and 110 were substrates of PP2B

Molecule: PP2C
phosphatase substrate screen (dephosphorylation, FRET/chymotrypsin read-out) [9]: SEQ ID NOs: 100, 109, and 110 were substrates of PP2C
phosphatase substrate screen (dephosphorylation, FRET/chymotrypsin read-out) [6]: SEQ ID NOs: 100, 109, and 110 were substrates of PP2C
phosphatase substrate screen (dephosphorylation, FRET/chymotrypsin read-out) [7]: SEQ ID NOs: 100, 109, and 110 were substrates of PP2C

B1: LAR (protein)
chain: KRKRTHSPSSKDEQSIGLKDSLLAHSSDPVEMRRLNYQTPGMRDHPPIPITDLADNIERLKANDGLKFSQEYESIDPGQQFTWENSNLEVNKPKNRYANVIAYDHSRVILTSIDGVPGSDYINANYIDGYRKQNAYIATQGPLPETMGDFWRMVWEQRTATVVMMTRLEEKSRVKCDQYWPARGTETCGLIQVTLLDTVELATYTVRTFALHKSGSSEKRELRQFQFMAWPDHGVPEYPTPILAFLRRVKACNPLDAGPMVVHCSAGVGRTGCFIVIDAMLERMKHEKTVDIYGHVTCMRSQRNYMVQTEDQYVFIHEALLEAATCGHTEVPARNLYAH
phosphatase substrate screen (dephosphorylation, FRET/chymotrypsin read-out) [10]: SEQ ID NO: 31 was a substrate for both PTP1B and LAR

B2: PTP1B (protein)
chain: MEMEKEFEQIDKSGSWAAIYQDIRHEASDFPCRVAKLPKNKNRNRYRDVSPFDHSRIKLHQEDNDYINASLIKMEEAQRSYILTQGPLPNTCGHFWEMVWEQKSRGVVMLNRVMEKGSLKCAQYWPQKEEKEMIFEDTNLKLTLISEDIKSYYTVRQLELENLTTQETREILHFHYTTWPDFGVPESPASFLNFLFKVRESGSLSPEHGPVVVHCSAGIGRSGTFCLADTCLLLMDKRKDPSSVDIKKVLLEMRKFRMGLIQTADQLRFSYLAVIEGAKFIMGDSSVQDQWKELSHEDLEPPPEHIPPPPRPPKRILEPHN
phosphatase substrate screen (dephosphorylation, FRET/chymotrypsin read-out) [10]: SEQ ID NO: 31 was a substrate for both PTP1B and LAR
